The results in this text go back to patent US20040175379A1 (AbbVie / Abbott, published 2004).

Sequences and labels used below:
T1: soluble human EPO receptor (human, UniProt P19235 25-250, limits assumed)
T1 construct: Only called 'soluble'
T1 sequence (looked up): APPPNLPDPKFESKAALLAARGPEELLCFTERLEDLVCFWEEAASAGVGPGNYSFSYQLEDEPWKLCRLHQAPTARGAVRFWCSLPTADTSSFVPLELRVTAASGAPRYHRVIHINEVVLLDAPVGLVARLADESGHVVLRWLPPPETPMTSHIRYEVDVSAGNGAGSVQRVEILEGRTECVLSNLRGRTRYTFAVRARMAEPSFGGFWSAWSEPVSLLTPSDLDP

T2: biotinylated EpoR (Abbott CHO cell derived ref.#RB69084:4) (UniProt P19235 25-250, limits assumed, biotinylated with biotin-NHS (sites not given))
T2 construct: also called biotin EpoR; biotin-EpoR
T2 sequence (looked up): T1 sequence (looked up)

B1: Ab198 (human anti-EPO-R antibody expressed by the cell line designated ABT2-SCX-198) (antibody, human IgG2, V domains shown)
VH: QVQLVESGGGVVQPGRSLRLSCVASGFTFSSYGMHWVRQAPGKGLEWVAVISYDGSNKYYADSVKGRFTISRDNSKNTLYLQMNSLRVEDTAVYYCARDHGGRYVYDYGMDVWGQGTTVTVSS
VL: DIQMTQSPSSVSASIGDRVSITCRASQGISSWLAWYQQKPGKAPTLLIYAASTLQRGVPSRFSGSGSGTDFTLTISSLQPEDFATYFCQQANSFPFTFGPGTKVDIK
B2: Ab12 (human anti-EPO-R antibody expressed by the cell line designated ABT2-SCX-012) (antibody, human IgG2, V domains shown)
VH: QVQLQESGPGLVKPSETLSLTCTVSGASISSYYWSWIRQPPGKGLEWIGYIYYSGSTNYNPSLKSRVTISVDTSKNQFSLKLRSVTAADTAVYYCARERLGIGDYWGQGTLVTVSS
VL: DIQLTQSPSSLSASVGDRVTITCRASQGIRNDLGWYQQKPGKAPKRLIYAASSLQSGVPSRFSGSGSGTEFTLTISSLQPEDFATYYCLQHNTYPPTFGQGTKVEIK
notes: also called AB-ABT2-XG2-012; ABT2-XG2-012
B3: human anti-EPO-R antibody expressed by the cell line designated ABT2-SCX-254 (antibody, human IgG2, V domains shown)
VH: QVQLVESGGGVVQPGRSLRLSCAASGFTFSSYGMHWVRQAPGKGLEWVAVIWFDGNNKFYADSVKGRFTISRDNSKNTLYLQMNSLRVEDTAVYYCARGGSYWDYWGQGTLVTVSS
VL: DIVMTQTPLFSFVMIGQPASISCRSRQSLVHSDGNTYLNWLQQRPGQPPRLLIYKTSNRFSGVPDRFSGSGAGTDFTLKISRVEAEDVGVYYCMQATQFPITFGQGTRLEIK
notes: also called Ab254
B4: human anti-EPO-R antibody expressed by the cell line designated ABT2-SCX-054 (antibody, V domains shown)
VH: B3 VH with S31K, I51L, F53Y, N56S, F59Y, V88A, G100P, S101Y, W103F
VL: not shown
notes: also called ABT2-SCX-54; Ab54
B5: human anti-EPO-R antibody expressed by the cell line designated ABT2-SCX-060 (antibody, human IgG2, V domains shown)
VH: B1 VH with V23A
VL: B1 VL with I15V, T53S
notes: also called Ab60
B6: human anti-EPO-R antibody expressed by the cell line designated ABT2-SCX-135 (antibody, human IgG2, V domains shown)
VH: B1 VH with V23A
VL: B1 VL with A13T, I15V, S30G, K42Q, T53S, S76N, I106V
notes: also called Ab135
B7: human anti-EPO-R antibody expressed by the cell line designated ABT2-SCX-003 (antibody, human IgG2, V domains shown)
VH: B1 VH with V23A
VL: B1 VL with I15V, A34V, T45A, T53S
notes: also called Ab3
B8: human anti-EPO-R antibody expressed by the cell line designated ABT2-SCX-022 (antibody, human IgG2, V domains shown)
VH: B1 VH with V23A, A49V
VL: B1 VL with I15V, T53S
notes: also called Ab22
B9: human anti-EPO-R antibody expressed by the cell line designated ABT2-SCX-267 (antibody, human IgG2, V domains shown)
VH: B1 VH with V23A, R98K
VL: B1 VL with I15V, S30G, K42Q, T53S, S76N, I106V
notes: also called Ab267
B10: human anti-EPO-R antibody expressed by the cell line designated ABT2-SCX-102 (antibody, human IgG2, V domains shown)
VH: B1 VH with V23A
VL: B1 VL with I15V, T45K, L46R, T53S
notes: also called Ab102
B11: human anti-EPO-R antibody expressed by the cell line designated ABT2-SCX-145 (antibody, human IgG2, V domains shown)
VH: B1 VH with V23A
VL: B1 VL with I15V, S30G, K42Q, T53S, S76N, I106V
notes: also called Ab145

Positions count from the first letter of the chain named.

The target of one experiment is T1, soluble human EPO receptor. Kind of experiment: SPR (Biacore 2000), antibody immobilised on the chip, soluble receptor 10-200 nM injected. As for the experimental part: Immobilizations of antibody were performed using the default immobilization program in the Biacore software package. Antibodies were diluted to 10 ug/mL in the supplied acetate buffers to prescreen for the appropriate pH at which to conduct the immobilizations. For immobilizations, antibodies were diluted into the appropriate acetate buffer (10 mM acetate pH 4.0) and coupled directly to the chip surface using standard EDC chemistry at three different protein levels (500, 1000, and 1500 RU). The fourth flow cell was mock coupled with EDC to cap the carboxyl groups and provide a background surface as a negative control.
Binding studies were performed by successive injections of varying concentrations of soluble human EPO receptor over the chip surface (500 RU immobilized protein). […]
Data were fit to the models available in the BiaEvaluation 3.0.2 software package (Biacore). […] Dissociation constants were calculated directly from fitting to the Langmuir binding model. For the bivalent analyte model, the dissociation constants were calculated indirectly using the calculated values for the kinetic dissociation and kinetic association constants, kd and kₐ.
In general terms: SPR reads the build-up and loss of mass on a sensor chip optically.
Usually Kd stands for a measure of binding affinity in units of concentration. A higher Kd goes with a looser complex. Regarding B1, the Kd came to 13.9 nM.

The molecule B2 registered an equilibrium dissociation constant (Kd) of 17.5 nM.

The next experiment concerns the target T2, biotinylated EpoR (Abbott CHO cell …). Kind of experiment: ELISA, biotin-EpoR on streptavidin plate, HEK 293 supernatant titrated 1:2. The protocol:
The ELISA for antigen specific antibody secretion was performed as follows. Control plates were coated with […] Goat anti-human IgG H+L O/N. For the binding plates, biotin-EpoR (0.7 mcg/mL) was coated onto streptavadin 96 well plates (Sigma, St Louis, Mo.) for one hour at room temperature. The plates were washed five times with dH₂O. Recombinant antibodies were titrated 1:2 for 7 wells from the undiluted minilipofection supernatant. The plates were washed five times with dH₂O. A goat anti-human IgG Fc-specific HRP-conjugated antibody was added at a final concentration of 1 ug/mL for 1 hour at RT for the secretion and the binding ELISA. The plates were washed five times with dH₂O. The plates were developed with the addition of TMB chromogenic substrate (KPL, Gaithersburg, Md.) for 30 minutes and the ELISA was stopped by the addition of 1 M phosphoric acid. Each ELISA plate was analyzed to determine the optical density of each well at 450 nm.
B3: the “Binding (dilution of the supernatant in ELISA)” value (shortened to “Binding”) is 8 1:n dilution of supernatant.

For B4, the “Binding” value was > 64 1:n dilution of supernatant.

In the case of B5, the “Binding” value was > 64 1:n dilution of supernatant.

Turning to B6, the “Binding” value was 4 1:n dilution of supernatant.

B7: the “Binding” value is > 64 1:n dilution of supernatant.

Turning to B8, the “Binding” value was > 64 1:n dilution of supernatant.

As for B9, the “Binding” value is > 64 1:n dilution of supernatant.

As for B1, the “Binding” value was > 64 1:n dilution of supernatant.

Take B10: the “Binding” value was > 64 1:n dilution of supernatant.

B11: the “Binding” value is > 64 1:n dilution of supernatant.

Take B2: the “Binding” value was > 64 1:n dilution of supernatant.
